Measurements published in article PMC9010608.

How the values were obtained:
[1] = biological target: T1, Strep-HP1021 (orphan response regulator) (Helicobacter pylori 26695) (UniProt O25665); assay: EMSA; settings: EMSA: 50 mM Tris-Cl, 250 mM KCl, 5 mM DTT, pH 7.0, 100 ng/uL sheared salmon sperm DNA, 37 C 30 min, 20 uL, 4% native PAGE, footprinting: 37 C 30 min
T1 sequence: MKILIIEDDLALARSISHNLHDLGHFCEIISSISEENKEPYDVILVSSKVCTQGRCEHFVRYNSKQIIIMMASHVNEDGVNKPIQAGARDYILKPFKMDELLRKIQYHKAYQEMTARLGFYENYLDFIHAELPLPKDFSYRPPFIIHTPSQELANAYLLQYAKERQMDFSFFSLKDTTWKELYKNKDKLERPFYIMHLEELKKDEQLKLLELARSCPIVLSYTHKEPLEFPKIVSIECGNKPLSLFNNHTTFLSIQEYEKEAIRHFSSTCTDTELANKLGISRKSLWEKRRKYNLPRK

[2] = biological target: T1, Strep-HP1021 (orphan response regulator) (Helicobacter pylori 26695); assay: competition; settings: EMSA: 50 mM Tris-Cl, 250 mM KCl, 5 mM DTT, pH 7.0, 100 ng/uL sheared salmon sperm DNA, 37 C 30 min, 20 uL, 4% native PAGE, footprinting: 37 C 30 min

Sequence | binding [1] | binding [2]
CCATTATCACTCCAATTTTAATTCTCATTTTTTTGCGAGTTTTTGATCTTTATAAATTCTAAAGGGGTATTAAACGCACTTCTAATAACGATTTTATAGCGCTTCAAAGATATAACACTAATTCATTTTAAATAATAATTAGTTAATGAACGCTTCCAGCCGGCTTCGTCAGTCGAAACATGTACGTGATTACATCCAACCTTGATTTCGTTATGTCTTCAAGGAAAAACACTTTAAGAATAGGAGAATAAG (double strand) [PureAmt (mutated ureAB promoter probe)] | no binding | 
CCATTATCACTCCAATTTTAATTCTCATTTTTTTGCGAGTTTTTGATCTTTATAAATTCTAAAGGGGTATTAAACGCACTTCTAATAACGATTTTATAGCGCTTCAAAGATATAACACTAATTCATTTTAAATAATAATTAGTTAATGAACGCTTCTGTTAATCTTAGTAAATCAAAACATTGCTACAATTACATCCAACCTTGATTTCGTTATGTCTTCAAGGAAAAACACTTTAAGAATAGGAGAATAAG (double strand) [PureA (ureAB promoter, AF700 probe)] | binds | 
CCATTATCACTCCAATTTTAATTCTCATTTTTTTGCGAGTTTTTGATCTTTATAAATTCTAAAGGGGTATTAAACGCACTTCTAATAACGATTTTATAGCGCTTCAAAGATATAACACTAATTCATTTTAAATAATAATTAGTTAATGAACGCTTCTGTTAATCTTAGTAAATCAAAACATTGCTACAATTACATCCAACCTTGATTTCGTTATGTCTTCAAGGAAAAACACTTTAAGAATAGGAGAATAAG (double strand) [PureA cold probe (unlabeled)] |  | binds
